{
  "source": "patent US9289506B2",
  "about": "“Surface binding of nanoparticle based drug delivery to tissue” (Massachusetts Institute of Technology, priority 2013, dated 2016)",
  "key": {"[1]": {"assay": "Competitive binding of FITC-Avidin and unlabeled Avidin in cartilage (binding isotherm fit)", "design": "species or system bovine", "conditions": "labeled Avidin ≦1 μM, no unlabeled Avidin, 3 day equilibration, 37° C.", "experimental": "To test this hypothesis, competitive binding experiments were performed in which 3 mm diameter cartilage disks were equilibrated for 3 days in 300 μl buffer containing a fixed amount of (fluorescently labeled) FITC-Avidin (1 μM) and graded amounts of unlabeled Avidin (0, 10, 76, 100, and 203 μM). The disks were split into half disks to reduce the time needed for equilibration, which was performed in 96 well plates at 37° C. The uptake ratio, RU, was measured and plotted versus the total bath concentration of Avidin (labeled+unlabeled, FIG. 13), where RU is defined as the total concentration of Avidin inside the cartilage (bound (CB) plus free (CF)) per intra-tissue water weight, normalized to the Avidin concentration in the equilibration bath (CBath):\nLabeled and unlabeled Avidin were held to partition into the cartilage identically. At very low concentration of the labeled Avidin (≦1 μM), a high uptake of ˜120 was observed. When unlabeled Avidin was added to the bath, both species (labeled and unlabeled) could compete for the same (constant) number of binding sites available in the tissue (site density NT). […] To model the data of FIG. 13, a first-order, bimolecular, reversible reaction was produced to describe binding of Avidin to a single dominant binding species within cartilage. A theoretical model was adopted, (Garcia et al., Arch Biochem Biophys, 2003) previously used for characterizing the binding of soluble insulin like growth factor-1 (IGF-1) to IGF-binding proteins (IGF-BPs) that are uniformly enmeshed and fixed within cartilage matrix. According to this model, the equilibrium molar concentration of free solute (CF), bound solute (CB), intra-tissue binding site density (NT) and the equilibrium dissociation constant (KEQ) are related by the binding isotherm:\n[formula] which is similar in form to a Langmuir adsorption isotherm. […]\n[formula] […] Thus, K is determined by both steric hindrance and electrostatic (Donnan) interactions. […]"}, "[2]": {"assay": "Equilibrium uptake and desorption of Avidin and NeutrAvidin in cartilage disks", "format": "in vitro ADME, bovine", "from_the_text": "Cartilage disks were harvested from the femoropatellar grooves of 1-2 week old bovine calf knee joints (obtained from Research 87, Hopkinton, Mass.) as described previously (Patwari et al., Arthritis Rheum, 2003). Briefly, cylindrical cartilage disks (3 mm or 6 mm diameter) were cored using a dermal punch and then sliced to obtain the top 1 mm of cartilage with intact superficial zone. Cartilage disks for all treatment groups were matched for depth and location along the joint surface. The disks were then pre-equilibrated in PBS (without Ca^2±/Mg^2±) supplemented with protease inhibitors (Complete Protease Cocktail tablet in 50 mL PBS, Roche Applied Science, IN) in a 37° C., 5% CO2 incubator for 24-48 h.\nEquilibrium uptake of Avidin and NeutrAvidin: 3 mm diameter, 1 mm thick cartilage explants were incubated for specific times in 300 μl of known concentration (3 μM) of FITC-Avidin and FITC-NeutrAvidin, supplemented with protease inhibitors at 37° C. in a 96 well plate format. After removal from the absorption baths, the disks were rinsed, gently wiped and then incubated in 1× or 10×PBS supplemented with protease inhibitors for 24 h or longer as specified. At the end of the experiment, the surfaces of each disk were quickly blotted with Kimwipes and the wet weight was measured. The disks were then lyophilized and the dry weight was measured; the water weight was calculated from the tissue wet and dry weights. The fluorescence signal in the absorption and desorption baths was quantified using a plate reader (1400 Wallace Victor, PerkinElmer, MA); the solute content inside the cartilage disk was determined from the difference between the fluorescence reading of the absorption/desorption baths before and after incubation. […] The solute uptake ratio was calculated as the concentration of the FITC-solute in the cartilage (per intra-tissue water weight) normalized to the concentration of FITC-solute in the equilibration bath."}, "[3]": {"assay": "One-way diffusion of solutes into cartilage half disks in transport chamber, confocal microscopy imaging", "format": "in vitro ADME, bovine", "conditions": "normal cartilage, 4 days", "quoted_text": "Solute Types: Two types of 15 nm diameter (MW˜300 kDa) Quantum Dots (QD) were used: (i) positively charged, and (ii) charge-neutral; same concentration. Transport of FITC (MW˜300 Da, diam˜0.9 nm) and dextrans (Dex) conjugated with FITC (Sigma Aldrich) of different MW (˜8 kDa, diam˜4.3 nm; ˜40 kDa, diam˜10 nm) were also investigated.\nTransport Studies: A special PMMA transparent transport chamber was designed to allow diffusion of solutes into only one side (superficial zone) of the cartilage disk. The chamber was treated with Casein to block non-specific binding of solutes to chamber surfaces. The equilibrated cartilage disks were then cut into halves and placed in the middle of the ‘slot chambers’ of the fixture. The chamber side facing the superficial zone was filled with ˜45 μl of solute-PBS solution; the other side was filled with 1×PBS alone. […]\nUsing a scalpel, a slice (100-200 μm thick) was then cut from the center of each disk (FIG. 1B). […] Appropriate filters were chosen to eliminate auto-fluorescence of cartilage at the settings used for imaging. […] To ensure proper image comparison, solute concentrations were chosen such that the FITC concentration in each solution was identical, thereby giving equal fluorescence intensities."}, "[4]": {"assay": "Intra-articular injection of Avidin or Neutravidin in rat knee joints: penetration, uptake and retention in joint tissues", "method": "Intra-articular (i.a.) injections of 50 μl of 50 μM Avidin (pI 10.5, 66 kDa, diameter ˜7 nm) or Neutravidin (neutral at pH 7, 60 kDa, diameter ˜7 nm) conjugated with Texas Red (both from Invitrogen, CA) were administered in the right knee joints of healthy 18-20 weeks old Fischer-344 rats (Charles River Laboratories). Following the injection, rat knees were flexed and extended to distribute the injected solute throughout the intra-articular space. Contralateral left knees were used as controls. Avidin injected rats were sacrificed at 4 different time points (6 h, 1 d, 4 d, 7 d) and Neutravidin injected rats were sacrificed after 1 day. The following tissue types were extracted from each joint: articular cartilage removed from the patellar groove, femoral condyle and tibial plateau using a scalpel; medial and lateral menisci; i.a. ligaments (ACL & PCL); patellar and quadriceps tendons; and femoral bone. 6 rats were used per treatment condition for a total of 30 rats. Using a digital caliper (Fisher Scientific), the joint thickness was measured before and after the injection at each time point to check for joint swelling indicating an inflammatory response to the injection.\nTissue samples extracted from the rat joints injected with Avidin-Texas Red (Excitation at 595 nm and emission at 615 nm) and sacrificed at 6 h were imaged using a confocal microscope (OLYMPUS, FluoView FV1000) at 10× magnification by taking Z stacks. Images were taken in X-Y plane, which represents the surface through which Avidin diffused. 3D images were reconstructed using Z stacking (slice thickness˜4.5 μm) and cross-sections in the X-Z plane of these 3D images were taken.\nTissue samples from all treatment conditions were then desorbed in 10×PBS for 48 h in 37° C. incubator to disrupt electrostatic interactions and release Avidin/Neutravidin into the desorption bath. […] At the end of the experiment, tissue samples were removed from the bath, lyophilized and the dry weight was measured. Fluorescence signal from desorption bath was quantified using a plate reader (Synergy HT, BioTek). […] The solute uptake was calculated as the concentration of labeled solute in the tissue samples normalized by tissue dry weight.\nThe half-life of Avidin was calculated by fitting an exponential curve to the experimental data:\nWhere, C0 is the initial and C(t) is the final Avidin concentration in tissue after time t and λ is the decay constant."}, "[5]": {"conditions": "rabbit knee; cited from earlier work"}, "[6]": {"assay": "Non-equilibrium diffusive transport across cartilage disks (transport cell)", "format": "in vitro ADME, bovine", "conditions": "free FITC added upstream at t=186 min", "experimental": "Real-time measurement of diffusive transport of Avidin and NeutrAvidin through young bovine cartilage disks (with intact superficial zone) was measured using a diffusion chamber consisting of two compartments as described previously (Garcia et al., Arch Biochem Biophys, 2003). Groups of three cartilage disks (6 mm diameter, 400 μm thick) were clamped by O-rings between the two compartments of the diffusion chamber (with total exposed tissue area for transport of 0.28 cm^2/disk), such that solute transport from the upstream compartment into and across the cartilage disks, simultaneously, could occur only from the superficial zone of the cartilage (schematic shown in the inset of FIG. 14). The compartments were treated with casein to prevent non-specific adsorption of solutes to the chamber surfaces. […] Aliquots were taken from each chamber at different time intervals, and fluorescence was measured using a plate reader.\nThe compartment volume of 25 ml is approximately 1,000× larger than the volume of the cartilage plugs in the configuration of FIG. 14 (inset). […] This configuration thereby focuses on quantitation of steady state solute flux and assessment of effective solute diffusivity within cartilage. […]\n[formula] where δ is the thickness of the cartilage disk (˜400 μm). DEFF for Avidin was calculated to be 3.8×10^−7 cm^2/s. […]"}, "[7]": {"conditions": "pH 7", "quoted_text": "For the non-covalent conjugation, drug was entrapped inside Avidin structure supra-molecularly, while an ester linker and/or pH sensitive hydrazone linker was utilized for the covalent conjugation."}},
  "data": [
    {"substance": "Avidin-FITC: FITC-conjugated Avidin [reference compound]", "values": [
      {"measurement": "uptake ratio RU", "setting": "[1]", "value": "~120"}
    ]},
    {"substance": "NeutrAvidin: electrically neutral globular protein at pH 7, 60 kDa, diameter ~7 nm; neutral counterpart of Avidin [reference compound]", "values": [
      {"measurement": "percent of absorbed solute diffused out of the cartilage", "setting": "[2]; 1×PBS, within 1 day", "value": "About 50%"},
      {"measurement": "mean uptake ratio", "setting": "[2]; 40% GAG-depleted cartilage (chondroitinase-ABC), 24 h", "value": 0.55},
      {"measurement": "partition coefficient KNeutrAvidin", "setting": "[2]; estimated from the data of FIG. 12B", "value": 0.44},
      {"measurement": "mean uptake ratio", "setting": "[2]; normal cartilage, 24 h", "value": 0.28},
      {"measurement": "mean uptake ratio", "setting": "[2]; normal cartilage, 4 days", "value": "~0.44"},
      {"measurement": "penetration into cartilage explant", "setting": "[3]", "value": "penetrated approximately half the sample thickness"},
      {"measurement": "presence in rat cartilage and patellar tendon", "setting": "[4]; 24 h after i.a. injection", "value": "no Neutravidin present"},
      {"measurement": "presence in meniscus, ligaments and quadriceps tendon", "setting": "[4]; 24 h after i.a. injection, compared to Avidin", "value": "small but very insignificant amounts"},
      {"measurement": "detection in the femoral bone", "setting": "[4]; any time point", "value": "Neither Avidin nor Neutravidin was detected"},
      {"measurement": "clearance from joint after i.a. injection", "setting": "[4]; within 24 h", "value": "almost complete clearance"}
    ]},
    {"substance": "albumin", "values": [
      {"measurement": "Half-life", "setting": "[5]", "value": "1.23 to 3.9", "unit": "h"}
    ]},
    {"substance": "fluorescein isothiocyanate [Fluorescein Isothiocyanate (FITC), reference compound]", "values": [
      {"measurement": "diffusivity", "setting": "[6]", "value": "2.8×10^−5 cm^2/s"}
    ]},
    {"substance": "hydrazone linker: Avidin conjugated with dexamethasone through pH sensitive hydrazone linkage via biotinylated PEG (FIG. 21C, FIG. 24)", "values": [
      {"measurement": "stability of linker", "setting": "[7]", "value": "extremely stable"}
    ]}
  ]
}
